pKd: −log10 of the molar value.
Biological target: SARS-CoV-2 Spike RBD K417N/N501Y (SARS-CoV-2) (UniProt P0DTC2)

## ACE2(T27Y/H34A/H374N)-IgG1Fc (from UniProt Q9BYF1 18-615) (Fc fusion)
  pKd: 9.35
  koff: 0.000334 s⁻¹
  kon: 747000 M⁻¹ s⁻¹

## ACE2-Fc IgG Hybrid Protein (ACE2-IgG1Fc, wildtype) (Fc fusion)
  pKd: 8.12
  koff: 0.00347 s⁻¹
  kon: 457000 M⁻¹ s⁻¹
